Data from the supplement of paper PMC9112550, “Optimization of the antimicrobial peptide Bac7 by deep mutational scanning” (BMC Biology, 2022).

system: Escherichia coli TOP10; test: shrunken log2 fold change of peptide-encoding DNA abundance (4.5 h post-induction vs induction); higher = less antimicrobial activity (less host growth inhibition); conditions: time post-induction: 4.5 h; library: site-saturation at positions 5, 18, 19, 20
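Note: peptides expressed intracellularly from a pBAD plasmid library in pooled LB shake-flask culture, induced with 0.3% L-arabinose, DNA abundance read by NGS, three biological replicates, DESeq2 with apeglm shrinkage.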

| Sequence | shrunken log2 fold change |
| --- | --- |
| RRIRMRPPRLPRPRPRPPMDPRP | 0.343 |
| RRIRRRPPRLPRPRPRPPVHPRP | 0.197 |
| RRIRGRPPRLPRPRPRPVLFPRP | 0.752 |
| RRIRRRPPRLPRPRPRPLGLPRP | 0.363 |
| RRIRGRPPRLPRPRPRPCDFPRP | 0.102 |
| RRIRWRPPRLPRPRPRPLTHPRP | -0.00362 |
| RRIRFRPPRLPRPRPRPGYQPRP | -0.0555 |
| RRIRIRPPRLPRPRPRPSWRPRP | 0.144 |
| RRIRRRPPRLPRPRPRPQQMPRP | 0.12 |
| RRIRFRPPRLPRPRPRPVVYPRP | -0.127 |
| RRIRKRPPRLPRPRPRPYQAPRP | 0.134 |
| RRIRERPPRLPRPRPRPQDDPRP | 0.121 |
| RRIRQRPPRLPRPRPRPQLGPRP | -0.194 |
| RRIRVRPPRLPRPRPRPWALPRP | -0.112 |
| RRIRRRPPRLPRPRPRPLGDPRP | 0.682 |
| RRIRFRPPRLPRPRPRPVDAPRP | 0.183 |
| RRIRSRPPRLPRPRPRPSRKPRP | -0.0434 |
| RRIRTRPPRLPRPRPRPEKFPRP | -0.376 |
| RRIRSRPPRLPRPRPRPFYQPRP | -0.308 |
| RRIRLRPPRLPRPRPRPTIIPRP | 0.0804 |
| RRIRERPPRLPRPRPRPQEQPRP | -0.0202 |
| RRIRWRPPRLPRPRPRPGMMPRP | 0.113 |
| RRIRQRPPRLPRPRPRPELSPRP | -0.00478 |
| RRIRLRPPRLPRPRPRPSLMPRP | 0.126 |
| RRIRCRPPRLPRPRPRPHAFPRP | -0.647 |

| Sequence | shrunken log2 fold change |
| --- | --- |
| RRIRGRPPRLPRPRPRPPETPRP | 1.24 |
| RRIRSRPPRLPRPRPRPGHYPRP | -0.645 |
| RRIRERPPRLPRPRPRPQYKPRP | -0.675 |
| RRIRLRPPRLPRPRPRPYNYPRP | -0.439 |
| RRIRPRPPRLPRPRPRPMVMPRP | -0.0504 |
| RRIRGRPPRLPRPRPRPHCHPRP | 0.284 |
| RRIRDRPPRLPRPRPRPIPAPRP | 0.0318 |
| RRIRRRPPRLPRPRPRPGLLPRP | 0.0882 |
| RRIRPRPPRLPRPRPRPCMMPRP | -0.467 |
| RRIRYRPPRLPRPRPRPWQQPRP | -0.273 |
| RRIRTRPPRLPRPRPRPDANPRP | -0.103 |
| RRIRIRPPRLPRPRPRPYYTPRP | -0.389 |
| RRIRERPPRLPRPRPRPPAKPRP | 0.176 |
| RRIRLRPPRLPRPRPRPSLKPRP | 0.0368 |
| RRIRWRPPRLPRPRPRPHMNPRP | -0.667 |
| RRIRMRPPRLPRPRPRPFDQPRP | 0.00237 |
| RRIRPRPPRLPRPRPRPGTWPRP | 0.0893 |
| RRIRLRPPRLPRPRPRPRCFPRP | -0.0548 |
| RRIRDRPPRLPRPRPRPCVMPRP | 0.543 |
| RRIRDRPPRLPRPRPRPVAYPRP | -0.0825 |
| RRIRGRPPRLPRPRPRPQHEPRP | 0.0159 |
| RRIRCRPPRLPRPRPRPVNMPRP | -0.179 |
| RRIRSRPPRLPRPRPRPYAGPRP | 0.0441 |
| RRIRPRPPRLPRPRPRPGWWPRP | 0.356 |
| RRIRVRPPRLPRPRPRPTAGPRP | -0.0283 |

| Sequence | shrunken log2 fold change |
| --- | --- |
| RRIRIRPPRLPRPRPRPHFSPRP | -0.181 |
| RRIRIRPPRLPRPRPRPRKCPRP | -0.599 |
| RRIRCRPPRLPRPRPRPLMSPRP | -0.289 |
| RRIRVRPPRLPRPRPRPSVTPRP | -0.222 |
| RRIRDRPPRLPRPRPRPIDNPRP | 0.131 |
| RRIRYRPPRLPRPRPRPICDPRP | -0.269 |
| RRIRSRPPRLPRPRPRPYGKPRP | -0.0603 |
| RRIRCRPPRLPRPRPRPDRRPRP | 0.0327 |
| RRIRKRPPRLPRPRPRPRPHPRP | 0.762 |
| RRIRTRPPRLPRPRPRPWRSPRP | -0.0438 |
| RRIRLRPPRLPRPRPRPIEPPRP | 0.144 |
| RRIRTRPPRLPRPRPRPCCYPRP | -0.43 |
| RRIRDRPPRLPRPRPRPIHPPRP | -0.125 |
| RRIRYRPPRLPRPRPRPLWFPRP | -0.494 |
| RRIRQRPPRLPRPRPRPTYAPRP | -0.0832 |
| RRIRYRPPRLPRPRPRPHAIPRP | -0.268 |
| RRIRMRPPRLPRPRPRPFTRPRP | -0.0636 |
| RRIRIRPPRLPRPRPRPWPEPRP | -0.162 |
| RRIRFRPPRLPRPRPRPGQAPRP | 0.0631 |
| RRIRKRPPRLPRPRPRPGLRPRP | 0.708 |
| RRIRERPPRLPRPRPRPQKTPRP | -0.0465 |
| RRIRMRPPRLPRPRPRPEDWPRP | 3.63 |
| RRIRPRPPRLPRPRPRPYVWPRP | -0.365 |
| RRIRERPPRLPRPRPRPIYFPRP | -0.378 |
| RRIRGRPPRLPRPRPRPFFVPRP | 0.246 |

| Sequence | shrunken log2 fold change |
| --- | --- |
| RRIRERPPRLPRPRPRPRYCPRP | -0.516 |
| RRIRFRPPRLPRPRPRPEEWPRP | -0.0208 |
| RRIRMRPPRLPRPRPRPPSTPRP | 0.97 |
| RRIRWRPPRLPRPRPRPYSPPRP | -1.1 |
| RRIRGRPPRLPRPRPRPWVLPRP | 0.222 |
| RRIRLRPPRLPRPRPRPTLFPRP | 0.0945 |
| RRIRIRPPRLPRPRPRPAGRPRP | 0.132 |
| RRIRERPPRLPRPRPRPCIKPRP | -0.363 |
| RRIRNRPPRLPRPRPRPNSEPRP | -0.258 |
| RRIRWRPPRLPRPRPRPNHIPRP | -0.569 |
| RRIRKRPPRLPRPRPRPQIVPRP | 0.119 |
| RRIRWRPPRLPRPRPRPCKQPRP | -0.156 |
| RRIRQRPPRLPRPRPRPFFKPRP | -0.132 |
| RRIRIRPPRLPRPRPRPMQSPRP | 0.0163 |
| RRIRWRPPRLPRPRPRPMCGPRP | 0.205 |
| RRIRQRPPRLPRPRPRPQKHPRP | -0.324 |
| RRIRLRPPRLPRPRPRPHVEPRP | 0.522 |
| RRIRMRPPRLPRPRPRPYNGPRP | -0.289 |
| RRIRLRPPRLPRPRPRPSKKPRP | -0.0524 |
| RRIRARPPRLPRPRPRPCHGPRP | -0.214 |
| RRIRDRPPRLPRPRPRPEAKPRP | 2.4 |
| RRIRNRPPRLPRPRPRPVGRPRP | 0.118 |
| RRIRNRPPRLPRPRPRPIGAPRP | 0.235 |
| RRIRRRPPRLPRPRPRPMPCPRP | 0.0929 |
| RRIRNRPPRLPRPRPRPWHPPRP | -0.277 |

| Sequence | shrunken log2 fold change |
| --- | --- |
| RRIRWRPPRLPRPRPRPFWIPRP | 0.0876 |
| RRIRYRPPRLPRPRPRPFRHPRP | -0.16 |
| RRIRFRPPRLPRPRPRPAPIPRP | 0.108 |
| RRIRGRPPRLPRPRPRPWAMPRP | 0.483 |
| RRIRQRPPRLPRPRPRPERVPRP | 0.0836 |
| RRIRVRPPRLPRPRPRPGDFPRP | 0.0156 |
| RRIRTRPPRLPRPRPRPGSSPRP | -0.209 |
| RRIRLRPPRLPRPRPRPMNDPRP | -0.219 |
| RRIRLRPPRLPRPRPRPIAEPRP | 0.591 |
| RRIRDRPPRLPRPRPRPSMTPRP | 0.237 |
| RRIRMRPPRLPRPRPRPNKRPRP | 0.261 |
| RRIRDRPPRLPRPRPRPFVLPRP | 0.045 |
| RRIRYRPPRLPRPRPRPKLAPRP | -0.0901 |
| RRIRDRPPRLPRPRPRPTPNPRP | 0.272 |
| RRIRDRPPRLPRPRPRPPQTPRP | 0.115 |
| RRIRERPPRLPRPRPRPSVLPRP | -0.312 |
| RRIRCRPPRLPRPRPRPYTIPRP | -0.342 |
| RRIRVRPPRLPRPRPRPHLNPRP | -0.455 |
| RRIRNRPPRLPRPRPRPAMTPRP | 0.157 |
| RRIRWRPPRLPRPRPRPQIKPRP | -0.21 |
| RRIRWRPPRLPRPRPRPKYPPRP | -0.582 |
| RRIRKRPPRLPRPRPRPWYNPRP | -0.00192 |
| RRIRPRPPRLPRPRPRPPISPRP | -0.0159 |
| RRIRRRPPRLPRPRPRPAYAPRP | -0.0409 |
| RRIRRRPPRLPRPRPRPGTLPRP | -0.0513 |

| Sequence | shrunken log2 fold change |
| --- | --- |
| RRIRWRPPRLPRPRPRPTNFPRP | 0.0339 |
| RRIRQRPPRLPRPRPRPIYTPRP | 0.036 |
| RRIRGRPPRLPRPRPRPCDCPRP | -0.0193 |
| RRIRERPPRLPRPRPRPYALPRP | -0.000856 |
| RRIRDRPPRLPRPRPRPWDYPRP | -0.00965 |
| RRIRKRPPRLPRPRPRPLDPPRP | 0.613 |
| RRIRRRPPRLPRPRPRPTKTPRP | 0.049 |
| RRIRSRPPRLPRPRPRPWHAPRP | 0.0362 |
| RRIRWRPPRLPRPRPRPSHWPRP | 0.3 |
| RRIRYRPPRLPRPRPRPWMTPRP | -0.663 |
| RRIRERPPRLPRPRPRPTRYPRP | -0.154 |
| RRIRVRPPRLPRPRPRPTQRPRP | 0.565 |
| RRIRNRPPRLPRPRPRPPGDPRP | 0.127 |
| RRIRRRPPRLPRPRPRPRITPRP | 0.186 |
| RRIRYRPPRLPRPRPRPVINPRP | -0.338 |
| RRIRARPPRLPRPRPRPQLMPRP | 0.125 |
| RRIRLRPPRLPRPRPRPCQKPRP | -0.17 |
| RRIRSRPPRLPRPRPRPGRKPRP | 0.133 |
| RRIRPRPPRLPRPRPRPVYMPRP | -1.1 |
| RRIRARPPRLPRPRPRPKHHPRP | -0.00948 |
| RRIRNRPPRLPRPRPRPDTWPRP | -0.213 |
| RRIRFRPPRLPRPRPRPWSGPRP | -0.221 |
| RRIRERPPRLPRPRPRPDAFPRP | -0.038 |
| RRIRERPPRLPRPRPRPAEVPRP | -0.0184 |
| RRIRPRPPRLPRPRPRPVVIPRP | -0.191 |
